How the values were obtained:
[1] = molecular target: T1, human TPBG (full length, on cells) (human, UniProt Q13641 32-420); assay: FACS, HEK293 clone 293F-hTPBG 4F9
T1 sequence (looked up): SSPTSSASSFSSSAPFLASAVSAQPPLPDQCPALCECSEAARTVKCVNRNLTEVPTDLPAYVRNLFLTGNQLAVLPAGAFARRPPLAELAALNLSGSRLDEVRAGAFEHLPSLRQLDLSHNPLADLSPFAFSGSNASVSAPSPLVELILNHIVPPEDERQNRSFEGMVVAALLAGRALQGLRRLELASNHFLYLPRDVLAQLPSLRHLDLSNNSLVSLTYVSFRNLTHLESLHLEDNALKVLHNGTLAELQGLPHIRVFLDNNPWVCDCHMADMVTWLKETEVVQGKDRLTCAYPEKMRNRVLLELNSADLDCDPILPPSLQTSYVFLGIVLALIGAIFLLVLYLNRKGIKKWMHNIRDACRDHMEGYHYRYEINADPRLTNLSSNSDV

[2] = molecular target: T1, human TPBG (full length, on cells); assay: FACS, HEK293 clone 293F-hTPBG 4A8
[3] = molecular target: T1, human TPBG (full length, on cells); assay: FACS, HEK293 clone 293F-hTPBG 4E1
[4] = molecular target: T1, human TPBG (full length, on cells); assay: FACS, HEK293 clone 293F-hTPBG 4H12
[5] = molecular target: T1, human TPBG (full length, on cells); assay: FACS, HEK293 clone 293F-hTPBG 5D4
[6] = molecular target: T1, human TPBG (full length, on cells); assay: FACS, HEK293 clone 293F-hTPBG 5E5
[7] = molecular target: T2, mouse TPBG (full length, on cells) (mouse, UniProt Q9Z0L0 32-426); assay: FACS on CHO-k1-mTPBG 3A3 cells
T2 construct: whole, on cells; On transfected CHO-K1 cells; also called mTPBG; CHO-K1-mTPBG
T2 sequence (looked up): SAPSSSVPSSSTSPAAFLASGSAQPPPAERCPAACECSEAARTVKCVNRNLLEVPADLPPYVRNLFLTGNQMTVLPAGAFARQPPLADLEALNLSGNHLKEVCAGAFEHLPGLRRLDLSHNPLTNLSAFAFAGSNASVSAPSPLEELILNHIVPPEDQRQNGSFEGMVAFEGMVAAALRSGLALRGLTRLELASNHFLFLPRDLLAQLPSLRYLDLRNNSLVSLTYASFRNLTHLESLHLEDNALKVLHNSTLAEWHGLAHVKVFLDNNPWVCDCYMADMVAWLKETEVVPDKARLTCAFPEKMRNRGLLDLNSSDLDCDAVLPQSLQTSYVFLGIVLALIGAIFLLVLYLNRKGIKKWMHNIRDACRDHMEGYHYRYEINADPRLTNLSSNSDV

[8] = molecular target: T1, human TPBG (full length, on cells); assay: FACS, HEK293 clone 293F-hTPBG 5G11
[9] = molecular target: T1, human TPBG (full length, on cells); assay: FACS on CHO-k1-hTPBG 3A2F1 cells
[10] = molecular target: T1, human TPBG (full length, on cells); assay: FACS, HEK293 clone 293F-hTPBG 4C3
[11] = molecular target: T1, human TPBG (full length, on cells); assay: FACS, HEK293 clone 293F-hTPBG 5E6
[12] = molecular target: T1, human TPBG (full length, on cells); assay: FACS, HEK293 clone 293F-hTPBG 5A9
[13] = molecular target: T1, human TPBG (full length, on cells); assay: FACS, HEK293 clone 293F-hTPBG 5C12
[14] = molecular target: T1, human TPBG (full length, on cells); assay: FACS, HEK293 clone 293F-hTPBG 4G1
[15] = molecular target: T1, human TPBG (full length, on cells); assay: FACS, HEK293 clone 293F-hTPBG 5H6
[16] = molecular target: cynomolgus monkey TPBG (full length, on cells) (cynomolgus monkey) (UniProt Q4R8Y9); assay: FACS on CHO-k1-cTPBG 3F13G4 cells
[17] = molecular target: T1, human TPBG (full length, on cells); assay: FACS, HEK293 clone 293F-hTPBG 4C5
[18] = molecular target: T1, human TPBG (full length, on cells); assay: FACS, HEK293 clone 293F-hTPBG 4G6
[19] = molecular target: T1, human TPBG (full length, on cells); assay: FACS, HEK293 clone 293F-hTPBG 5G8
[20] = molecular target: T1, human TPBG (full length, on cells); assay: FACS, HEK293 clone 293F-hTPBG 5A11
[21] = molecular target: T1, human TPBG (full length, on cells); assay: FACS, HEK293 cell strain 5E5E9 transfected with human TPBG
[22] = molecular target: T1, human TPBG (full length, on cells); assay: FACS, HEK293 clone 293F-hTPBG 4B9
[23] = molecular target: T1, human TPBG (full length, on cells); assay: FACS, HEK293 clone 293F-hTPBG 4A9
[24] = molecular target: T1, human TPBG (full length, on cells); assay: FACS, HEK293 clone 293F-hTPBG 4E1 (NO. 8)
[25] = molecular target: T1, human TPBG (full length, on cells); assay: cell-based or functional assay
[26] = molecular target: T3, human TPBG-hFc (human, UniProt Q13641 32-355); assay: ELISA, coated human TPBG-hFc 1.0 ug/mL; control IgG 0.02 nM
T3 construct: also called immunogen A; hFc tagged TPBG protein; not shown: The human IgG Fc fragment of the pCpC vector (Invitrogen V044-50) and any linker to it
T3 sequence: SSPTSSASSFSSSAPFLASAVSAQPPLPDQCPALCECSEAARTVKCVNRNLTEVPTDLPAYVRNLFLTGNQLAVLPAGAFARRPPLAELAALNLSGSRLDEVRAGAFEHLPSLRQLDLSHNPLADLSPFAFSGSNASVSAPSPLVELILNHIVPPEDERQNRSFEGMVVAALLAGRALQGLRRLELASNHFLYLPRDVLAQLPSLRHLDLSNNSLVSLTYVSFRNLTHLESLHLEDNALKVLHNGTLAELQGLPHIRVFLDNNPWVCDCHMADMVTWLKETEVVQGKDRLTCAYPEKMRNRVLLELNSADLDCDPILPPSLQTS

[27] = molecular target: T3, human TPBG-hFc; assay: ELISA, coated human TPBG-hFc 1.0 ug/mL; control IgG 0.002 nM
[28] = molecular target: T3, human TPBG-hFc; assay: ELISA, coated human TPBG-hFc 1.0 ug/mL; control IgG 0.2 nM
[29] = molecular target: T3, human TPBG-hFc; assay: ELISA, coated human TPBG-hFc 1.0 ug/mL; control IgG 2 nM
[30] = molecular target: T3, human TPBG-hFc; assay: ELISA, coated human TPBG-hFc 1.0 ug/mL; control IgG 200 nM
[31] = molecular target: T3, human TPBG-hFc; assay: ELISA, coated human TPBG-hFc 1.0 ug/mL; control IgG 20 nM
[32] = molecular target: T3, human TPBG-hFc; assay: ELISA, coated human TPBG-hFc 1.0 ug/mL; control IgG 0.0002 nM

Substance | MFI [1] [MFI] | MFI [2] [MFI] | MFI [3] [MFI] | MFI [4] [MFI] | MFI [5] [MFI] | MFI [6] [MFI] | MFI [7] [MFI] | MFI [8] [MFI] | MFI [9] [MFI] | MFI [10] [MFI] | MFI [11] [MFI] | MFI [12] [MFI] | MFI [13] [MFI] | MFI [14] [MFI] | MFI [15] [MFI] | MFI [16] [MFI] | MFI [17] [MFI] | MFI [18] [MFI] | MFI [19] [MFI] | MFI [20] [MFI] | other results
commercial available TPBG antibody (purchased from Sigma, Lot NO: SAB1404485) | 47.7 | 33.4 | 145 | 9.5 | 70.6 | 280 | 135 | 11.3 | 798 | 27.2 | 13.2 | 53.2 | 75.4 | 131 | 36.4 | 198 | 172 | 31.8 | 168 | 166 | MFI [21]: 216 MFI; percentage of TPBG-positive cells [21]: 98.5%; MFI [22]: 126 MFI; MFI [23]: 204 MFI; MFI [24]: 91.8 MFI
Control hIgG-MMAF (antibody) | – | – | – | – | – | – | – | – | – | – | – | – | – | – | – | – | – | – | – | – | IC50 of cytotoxicity on TPBG-positive NCI-H1299 cells (CellTiter-Glo) [25]: > 100 nM
mouse IgG control (antibody) | 3.9 | 3.1 | 5.2 | 4 | 3 | 5.6 | 2.38 | 4.1 | 3.24 | 3.2 | 2.6 | 5 | 3.7 | 4 | 3 | 2.66 | 5.6 | 3.1 | 6 | 4.6 | OD450nm [26]: 0.1 OD450nm; OD450nm [27]: 0.1 OD450nm; OD450nm [28]: 0.11 OD450nm; OD450nm [29]: 0.1 OD450nm; OD450nm [30]: 0.24 OD450nm; OD450nm [31]: 0.11 OD450nm; OD450nm [32]: 0.11 OD450nm; MFI [22]: 6.3 MFI; MFI [23]: 6.3 MFI; MFI [24]: 4.8 MFI

Reference: patent publication US20210198377A1 (XDCEXPLORER SHANGHAI, published 2021)
